# Reference: the nanobody polyreactivity screen of Harvey et al. (2022)
# Assay: yeast display, Sf9 membrane polyspecificity reagent, FACS + sequencing; frameworks hold sequencing errors
# Method in brief: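 Polyreactivity labels are assigned by the sorting gate from which each nanobody was recovered. The gates were low and high (top ~1%), set on anti-HA fluorescence for expression and streptavidin fluorescence for reagent binding. Before sorting, galactose-induced (36–48 hours) yeast display cells were stained for 1 hour at 4 °C with 10% biotinylated, detergent-solubilized Sf9 membrane reagent.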
sequence,measurement,value
QVQLVESGGGLVQAGGSLRLSCAASGRTFWYYAMGWYRQAPGKERELVARISTGGSTNYADSVKGRFTISRDNAKNTVYLQMNSLKPEDTAVYYCAARPVWRRPSKFDYWGQGTQVTVSS,polyreactivity (PSR sort gate),high polyreactivity
QVQLVESGGGLVQAGGSLRLICAASGITFAVYAMGWYSQAPGKERELVAASSVSGGSTYYADSVKGRFTISRDNAKNTVYLQMNSLKPEATAVYYGAADRYGHFGDWGQGTQVTVSS,polyreactivity (PSR sort gate),high polyreactivity
QVQLVESGGGLVQAGVSLRLSCAASGSIFYYYAMGWYRPAPGKERELVAAITRSGGSTYYADSVKGRFTISRDNAKNTVYLQMNSLKPEDTAVYYCAKDAHAYRDLDYWGQGTQVTVSS,polyreactivity (PSR sort gate),low polyreactivity
QVQLVESGGGLVQAGGSLRLSCAASGRIFYYNAMGWYRQAPGKEREFVAAITYRGGSTYYADSVKGRFTISRDNAKNTVYLQMNSLKPEDTAVYYCAARSAWQVAPRGRTVAFDYWGQGTQLTVSS,polyreactivity (PSR sort gate),high polyreactivity
QVQLVESGGGLVQAGGSLRLSCAASGRNFGRNGMGWYRQAPGKERELVAAISIGDSTTYADSVKGRFTISRDNAKNTVYLQMNSLKPEDTAVFYCAAELERYPVWEYRGKYDYWGQGTQVTVSS,polyreactivity (PSR sort gate),low polyreactivity
QDQLVESGGGLVQAGGSLRLSCAASGSIFRKYVMGWYRQAPGKERELVAAISGSGGRTYYADSVKGRFTISRDNAKNTVYLQMNSLKPEDTAVYYSNAYPHAYTGSTREGDYWGQGTQVTVSS,polyreactivity (PSR sort gate),high polyreactivity
QVQLVESGGGLVQAGGSLRLSCAASGSIFVRYAMGWYRQAPGKERELVAAISSGGRTYYADSVKGRFTISRDNAKNPVYLQMNSLKPEDTAVYYCNAVKRVPSLGPYDYWGQGTQVTVSS,polyreactivity (PSR sort gate),high polyreactivity
QVQLVESGGGLVQAGGSLRLSCSASGRTLGRNAMGWYRPAPGKERELVAAISWGGGDTSYADSVKGRFTISRDNAKNTVYLQMNSLKPEDTAVYYCNRYYTPYRRWGYDYWGQGTQVTVSS,polyreactivity (PSR sort gate),high polyreactivity
QVQLVESGGGLVQAGGSLRLSCAASGSTFYIYAMGWYRQAPGKERELVAVITRRGGSTSYADSVKGRFTISRDNAKNTVYLQINSLKPEDTAVYYCAAKRTWPDVKYIRYGYWGQGTQVTVSS,polyreactivity (PSR sort gate),high polyreactivity
QVQLVESGGGLVQAGGSRRLSCAASGSIFDYYVMGWYRQAPVKERELVAAISWSGASTYSADSVKGRFTISRDNAKNTVYLQMNSLKPEDTAVYYCAADYGVNTLIDYDYWGQGTQVTVSS,polyreactivity (PSR sort gate),low polyreactivity
QVQLVESGGGLVQAGGSLRLSCADSGRTIYRNGMGWYRKAPGKEREFVAAINYRGGSTNYADSVKWRFTISRDKAKNTVYLQMNSLKPEDTAVYYCATRIFRAALRFDYWGQGTQVTVSS,polyreactivity (PSR sort gate),high polyreactivity
QVQLVESGAGLVQAGGSRRLSCAASVLIFAWYAMGWSRQAPGNERELVAAITGTGSSTYYADSVKGRFTISRDNAKNTVYLLLNSLKPDDTAVYYCAPTSLPRYYYWGQGTQVTVSS,polyreactivity (PSR sort gate),low polyreactivity
QVQLVESGGGLVQAGGSLRLSCAASGRIFYEYAMGWYRQAPGKERELVAISTSGGNTYYADSVKGRFTISRDNAKNTVYLQMNSLKPEVTAVYYCAARLQYYPYYYWGQGTQVTVSS,polyreactivity (PSR sort gate),high polyreactivity
QVQLVESGGVLVQAGGSLRLSCAASGSIFGSYTMGWYRQAPGKEREMVAAISGGGASTYYADSVKGRFTISRDNAKNTVYLQMNSLKPEDTAVYYCYKRGVIERRKPWHYSTFDYWGQGTQVTVSS,polyreactivity (PSR sort gate),low polyreactivity
QVQLVESGGGLVQAGGSLRLSCAASGSTFYIYAMGWSRQAPGKERELVARISGSGGSTYYADSVKGRFTISRDNAKNTVYLQMNSLKPEDTAVYYCAADDIYKYYQYYAFPYYRYDYWGQGTQVTVSS,polyreactivity (PSR sort gate),low polyreactivity
QVQLVESGGGLVQAGGSLRLSCAASGSTFYWYAMGWYRQAPGKEREFVAAISLGSGSTYYADSVKGRFTISRDNAKNTVYLQMNSLKPEDTAVYYCARRYPYPAYEYGYWGQGTQVTVSS,polyreactivity (PSR sort gate),high polyreactivity
QVQLVESGGGLVQAGGRLRLSCAASGSIFIYYAMGWYRQAPGKERELVAAISNGGSTNYADSVKGRFTISRDNAKNTVYLQMNSLKPEDTAVYYCNTDWGYFHGVRAYLGYGYWGQGTQVTVSS,polyreactivity (PSR sort gate),low polyreactivity
